This is an account of results in US20200368361A1.

Assay [1] deals with full length monkey MSR1 on HEK293.mfMSR1 cells (Macaca fascicularis). Put plainly: ECL cell binding, HEK293.mfMSR1.
Assay [2] concerns the target endogenously expressed human MSR1 on PMA-treated THP-1 cells (human) (UniProt P21757). Put plainly: ECL cell binding, PMA-treated THP-1.
Assay [3] addresses full length human MSR1 with a C-terminal Myc tag on HEK293.Myc.hMSR1 cells (human) (UniProt P21757). Put plainly: ECL cell binding, HEK293.Myc.hMSR1.
In assay [4] the target is human MSR1 endogenously expressed on PMA-differentiated THP-1 cells (human) (UniProt P21757). Put plainly: cell-based or functional assay.
Sequence of human MSR1 endogenously expressed on PMA-differentiated THP-1 cells (human) (P21757 whole entry): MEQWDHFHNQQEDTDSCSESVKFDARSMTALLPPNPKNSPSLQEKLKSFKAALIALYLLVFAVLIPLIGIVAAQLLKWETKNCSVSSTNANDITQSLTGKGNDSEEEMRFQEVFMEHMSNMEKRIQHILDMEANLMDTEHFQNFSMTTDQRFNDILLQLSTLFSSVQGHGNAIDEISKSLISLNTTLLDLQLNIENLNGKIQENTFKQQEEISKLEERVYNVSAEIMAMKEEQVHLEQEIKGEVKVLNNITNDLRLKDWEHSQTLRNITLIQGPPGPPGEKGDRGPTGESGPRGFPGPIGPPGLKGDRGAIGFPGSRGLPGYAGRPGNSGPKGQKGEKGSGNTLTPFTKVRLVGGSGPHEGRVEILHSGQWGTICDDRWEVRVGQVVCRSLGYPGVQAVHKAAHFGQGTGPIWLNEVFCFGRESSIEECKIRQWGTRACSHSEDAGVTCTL
The target is the same in assay [5]. Description: imaging of PMA-differentiated THP-1 cells, 10 ug/mL antibody, Alexa 488 secondary.
Assay [6] concerns the target His9-hMSR1, human MSR1 extracellular domain with an N-terminal 9-Histidine tag (human) (UniProt P21757). Description: competition ELISA on coated His9-hMSR1; competitor biot-AGE-BSA; antibody 300 nM. For orientation: An ELISA detects its analyte on a solid surface through an enzyme-linked reagent.
The target is the same in assay [7]. Put plainly: competition ELISA on coated His9-hMSR1; competitor Ac-LDL; antibody 100 nM.
Assay [8] shares this target. Description: competition ELISA on coated His9-hMSR1; competitor Ox-LDL 10 nM; antibody 1 µM.

Sequence of His9-hMSR1, human MSR1 extracellular domain with an N-terminal 9-Histidine tag (human) (P21757 other isoform, or with tags, fused parts or gaps): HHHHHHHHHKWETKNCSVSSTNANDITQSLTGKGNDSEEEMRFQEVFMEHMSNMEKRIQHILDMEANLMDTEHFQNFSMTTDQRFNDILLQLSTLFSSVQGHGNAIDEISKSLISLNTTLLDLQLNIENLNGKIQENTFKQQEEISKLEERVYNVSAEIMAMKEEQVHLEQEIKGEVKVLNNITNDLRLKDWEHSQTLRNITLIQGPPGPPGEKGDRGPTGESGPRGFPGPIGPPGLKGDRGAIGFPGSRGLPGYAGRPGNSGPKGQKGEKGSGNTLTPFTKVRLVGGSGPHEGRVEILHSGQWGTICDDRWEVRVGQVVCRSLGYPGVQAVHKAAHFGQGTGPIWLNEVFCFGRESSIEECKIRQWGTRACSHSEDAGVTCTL
Sequence of full length monkey MSR1 on HEK293.mfMSR1 cells (Macaca fascicularis) (chain, as listed by the source): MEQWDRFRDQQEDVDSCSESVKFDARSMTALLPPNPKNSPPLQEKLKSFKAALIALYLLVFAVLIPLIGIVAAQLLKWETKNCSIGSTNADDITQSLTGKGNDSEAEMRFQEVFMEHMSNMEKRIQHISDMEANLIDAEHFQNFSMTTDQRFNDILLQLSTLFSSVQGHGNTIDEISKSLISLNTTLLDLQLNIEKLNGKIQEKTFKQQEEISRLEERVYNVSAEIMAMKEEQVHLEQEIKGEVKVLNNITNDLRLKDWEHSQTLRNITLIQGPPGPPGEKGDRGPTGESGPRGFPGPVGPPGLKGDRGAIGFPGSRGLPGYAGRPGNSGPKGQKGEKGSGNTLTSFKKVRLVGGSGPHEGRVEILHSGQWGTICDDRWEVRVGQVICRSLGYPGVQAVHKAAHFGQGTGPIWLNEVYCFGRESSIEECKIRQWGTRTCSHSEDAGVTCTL
Sequence of full length human MSR1 with a C-terminal Myc tag on HEK293.Myc.hMSR1 cells (human) (P21757 whole entry): as the sequence (P21757 whole entry) above
Sequence of endogenously expressed human MSR1 on PMA-treated THP-1 cells (human) (P21757 whole entry): as above

Regarding mIgG Isotype Control (antibody), the binding signal ratio to isotype control (11 nM) in assay [1], in assay [2] and in assay [3] was 1 fold in each case.

Substance “Isotype control (internalization assay of Table 19) (antibody)” had a Total Internalized RFU in assay [4] of 1.7e+06 RFU. In assay [5], this substance returned a Total Binding at 4° C. of 186000 RFU and a Total Binding at 37° C. of 1.09e+06 RFU.

As for “hIgG1 isotype control (competition ELISA of Table 20) (antibody)”, the % Blocking in assay [6] is 4%; in assay [7] it was -8%; in assay [8], 3%.

Consider hIgG1 Isotype Control (antibody), for which the binding signal ratio to isotype control (11 nM) in assay [1], in assay [2] and in assay [3] was 1 fold throughout.

Turning to “mIgG1 isotype control (competition ELISA of Table 20) (antibody)”, the % Blocking in assay [6] is 7%; in assay [7], -4%; in assay [8] it was 16%.
